Experiment [1] addresses SARS-CoV-2 S on pseudovirions (Wuhan Hu-1 / IL1/2020, last 18 amino acids removed) (SARS-CoV-2, UniProt P0DTC2 14-1273). In words: cell-based or functional assay.
In experiment [2] the target is T1, HCoV-NL63 spike antigens (bead panel) (HCoV-NL63, UniProt Q6Q1S2 19-1296).
T1 sequence: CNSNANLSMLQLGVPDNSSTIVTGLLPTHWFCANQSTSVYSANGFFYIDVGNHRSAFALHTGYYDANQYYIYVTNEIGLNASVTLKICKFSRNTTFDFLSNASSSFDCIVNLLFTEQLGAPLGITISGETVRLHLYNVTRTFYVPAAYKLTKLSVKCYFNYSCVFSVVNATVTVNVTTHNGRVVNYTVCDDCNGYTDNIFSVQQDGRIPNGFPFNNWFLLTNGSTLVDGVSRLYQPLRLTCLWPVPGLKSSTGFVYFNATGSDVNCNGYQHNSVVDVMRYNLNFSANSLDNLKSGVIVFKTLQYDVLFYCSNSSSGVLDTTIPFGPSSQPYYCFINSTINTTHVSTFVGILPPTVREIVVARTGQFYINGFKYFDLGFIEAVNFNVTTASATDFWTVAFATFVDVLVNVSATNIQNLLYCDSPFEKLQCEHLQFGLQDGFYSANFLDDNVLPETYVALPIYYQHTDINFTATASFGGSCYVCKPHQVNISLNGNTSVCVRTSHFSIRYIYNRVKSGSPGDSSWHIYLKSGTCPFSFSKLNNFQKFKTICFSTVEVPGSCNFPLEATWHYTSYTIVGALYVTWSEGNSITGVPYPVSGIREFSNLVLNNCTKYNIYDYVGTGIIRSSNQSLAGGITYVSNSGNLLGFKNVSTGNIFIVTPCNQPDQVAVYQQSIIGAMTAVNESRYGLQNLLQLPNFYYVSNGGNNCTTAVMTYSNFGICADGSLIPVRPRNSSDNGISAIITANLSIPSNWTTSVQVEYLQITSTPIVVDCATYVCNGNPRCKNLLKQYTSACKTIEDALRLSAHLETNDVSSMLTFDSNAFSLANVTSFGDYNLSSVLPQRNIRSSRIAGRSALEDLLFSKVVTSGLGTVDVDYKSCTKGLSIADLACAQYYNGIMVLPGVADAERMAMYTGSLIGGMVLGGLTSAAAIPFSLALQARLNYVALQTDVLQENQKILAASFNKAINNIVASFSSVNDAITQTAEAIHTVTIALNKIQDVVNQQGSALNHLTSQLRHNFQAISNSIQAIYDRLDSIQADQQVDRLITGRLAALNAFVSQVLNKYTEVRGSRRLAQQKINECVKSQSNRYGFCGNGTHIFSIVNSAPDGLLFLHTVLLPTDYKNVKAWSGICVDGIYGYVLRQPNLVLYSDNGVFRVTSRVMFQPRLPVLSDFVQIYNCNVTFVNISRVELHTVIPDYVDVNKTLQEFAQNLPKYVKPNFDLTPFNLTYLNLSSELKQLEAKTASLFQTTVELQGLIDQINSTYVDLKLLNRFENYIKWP
The experiment in a line: multiplex bead assay.

Experiment [3] deals with T2, HCoV-229E spike antigens (bead panel) (HCoV-229E, UniProt P15423 16-1115).
T2 sequence: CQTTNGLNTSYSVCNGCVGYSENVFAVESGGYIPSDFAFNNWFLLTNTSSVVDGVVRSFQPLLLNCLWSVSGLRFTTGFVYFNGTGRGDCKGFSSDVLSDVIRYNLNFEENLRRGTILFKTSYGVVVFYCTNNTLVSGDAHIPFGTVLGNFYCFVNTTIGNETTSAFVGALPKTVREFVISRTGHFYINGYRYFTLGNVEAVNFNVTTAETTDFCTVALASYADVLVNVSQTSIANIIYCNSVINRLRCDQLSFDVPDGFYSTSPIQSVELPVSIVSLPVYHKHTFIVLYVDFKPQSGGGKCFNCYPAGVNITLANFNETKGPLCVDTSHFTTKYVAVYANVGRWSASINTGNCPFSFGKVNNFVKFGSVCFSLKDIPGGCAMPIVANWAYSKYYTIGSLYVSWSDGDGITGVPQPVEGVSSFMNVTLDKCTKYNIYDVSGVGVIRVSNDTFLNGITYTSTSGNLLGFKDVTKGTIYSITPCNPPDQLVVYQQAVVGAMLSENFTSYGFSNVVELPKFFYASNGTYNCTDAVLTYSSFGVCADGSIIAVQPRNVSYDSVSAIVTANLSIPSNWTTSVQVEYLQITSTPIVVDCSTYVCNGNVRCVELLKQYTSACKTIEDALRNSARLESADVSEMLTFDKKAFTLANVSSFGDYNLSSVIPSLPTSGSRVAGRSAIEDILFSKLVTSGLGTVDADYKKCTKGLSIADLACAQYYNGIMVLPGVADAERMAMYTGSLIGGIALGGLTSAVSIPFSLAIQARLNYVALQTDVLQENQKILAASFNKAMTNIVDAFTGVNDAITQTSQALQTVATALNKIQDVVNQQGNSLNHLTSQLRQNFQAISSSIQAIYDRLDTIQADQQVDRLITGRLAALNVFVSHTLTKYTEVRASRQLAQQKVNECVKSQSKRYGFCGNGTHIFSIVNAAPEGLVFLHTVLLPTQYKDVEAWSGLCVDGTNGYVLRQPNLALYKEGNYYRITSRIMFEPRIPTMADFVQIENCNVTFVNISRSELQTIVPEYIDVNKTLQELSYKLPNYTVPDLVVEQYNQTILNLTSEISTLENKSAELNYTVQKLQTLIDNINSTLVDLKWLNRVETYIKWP
The experiment in a line: multiplex bead assay.

For experiment [4], the target named is SARS-CoV-1 spike antigens (bead panel) (SARS-CoV-1, UniProt P59594 14-1195). The experiment in a line: multiplex bead assay.
Experiment [5] has as its target T3, HCoV-OC43 spike antigens (bead panel) (HCoV-OC43, UniProt P36334 14-1297).
T3 sequence: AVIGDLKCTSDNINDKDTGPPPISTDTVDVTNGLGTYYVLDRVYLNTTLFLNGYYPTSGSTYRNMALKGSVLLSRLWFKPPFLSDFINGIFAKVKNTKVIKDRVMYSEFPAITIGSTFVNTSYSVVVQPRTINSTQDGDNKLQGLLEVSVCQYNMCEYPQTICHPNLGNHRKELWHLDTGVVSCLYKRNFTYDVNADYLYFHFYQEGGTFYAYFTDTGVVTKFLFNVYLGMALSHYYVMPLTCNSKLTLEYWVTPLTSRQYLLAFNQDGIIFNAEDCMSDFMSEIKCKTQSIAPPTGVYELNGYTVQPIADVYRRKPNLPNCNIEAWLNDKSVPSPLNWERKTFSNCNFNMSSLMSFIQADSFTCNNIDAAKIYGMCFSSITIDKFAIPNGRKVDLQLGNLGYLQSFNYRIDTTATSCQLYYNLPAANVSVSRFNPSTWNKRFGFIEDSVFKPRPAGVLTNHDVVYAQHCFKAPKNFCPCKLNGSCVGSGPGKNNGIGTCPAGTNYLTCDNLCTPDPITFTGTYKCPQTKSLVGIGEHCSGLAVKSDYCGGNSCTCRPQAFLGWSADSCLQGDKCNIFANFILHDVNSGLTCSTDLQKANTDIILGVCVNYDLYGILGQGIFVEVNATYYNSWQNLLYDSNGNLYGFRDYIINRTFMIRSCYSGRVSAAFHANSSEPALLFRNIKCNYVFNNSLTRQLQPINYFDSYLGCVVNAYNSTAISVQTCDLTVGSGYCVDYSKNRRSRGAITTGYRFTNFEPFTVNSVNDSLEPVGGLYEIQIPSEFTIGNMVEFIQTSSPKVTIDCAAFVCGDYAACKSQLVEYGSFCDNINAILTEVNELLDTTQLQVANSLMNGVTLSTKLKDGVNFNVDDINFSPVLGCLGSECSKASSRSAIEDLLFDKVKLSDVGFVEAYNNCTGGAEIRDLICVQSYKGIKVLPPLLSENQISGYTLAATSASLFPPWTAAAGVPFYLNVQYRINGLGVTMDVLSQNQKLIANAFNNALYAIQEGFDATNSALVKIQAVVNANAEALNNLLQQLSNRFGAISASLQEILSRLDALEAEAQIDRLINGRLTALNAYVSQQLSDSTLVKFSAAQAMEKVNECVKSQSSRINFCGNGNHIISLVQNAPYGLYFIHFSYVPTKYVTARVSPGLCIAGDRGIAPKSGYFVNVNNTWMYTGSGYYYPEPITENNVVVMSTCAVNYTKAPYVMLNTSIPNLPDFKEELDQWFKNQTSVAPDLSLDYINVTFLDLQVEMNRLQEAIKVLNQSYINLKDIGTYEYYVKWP
The experiment in a line: multiplex bead assay.

B1: COV_1007 (antibody, V domains shown)
VH: QVTLKESGPVLVKPTETLTLTCTVSGFSLINARVGVSWIRQPPGKALDWLAHIFSSDEKSYSTSLKSRLTISKDTSKSQVVLTMTNMDPVDTATYYCARIRWLSSYYFDYWGQGTLVTVSS
VL: DIRMTQSPSSVSASVGDRVTITCRASQGISNWLAWYQQKPGKAPKLLIYAASSLQSGVPSRFSGGGSGTDFTLTISSLQPEDFATYYCQQANSFLLTFGGGTKVEIK
notes: human IgG1
For B1, the “Mean IC50, pSV neutralization” value in experiment [1] is 9 µg/ml. Besides, the “Mean IC80, pSV neutralization” value in experiment [1] was no less than 25 µg/ml. The binding result in experiment [2], in experiment [3], in experiment [4] and in experiment [5] was “no binding” each time.

For the origin of these results see patent US20240101645A1 (HENRY M JACKSON FOUNDATION FOR THE ADVANCEMENT OF MILITARY …, published 2024).
